The target in data set [1] is T1, cMet (HGFR) ectodomain, cMet-Fc (human, UniProt P08581 P08581:25-932). The data set is described as follows: competition; filter retention vs 32P-trCLN3; ~50 nM cMet; 1x PBS pH 7.4, 2 mM MgCl2, tRNA, BSA, 37 C. Particulars: tags: Fc domain of human IgG1 fusion, R&D Systems; chain copies: 2; G4, micellar nanoconstruct above CMC 300-350 nM. On the procedure: (§1) To determine the affinity, ˜25 fmol of radiolabeled aptamer was incubated with a cMet concentration of ˜50 nM together with varying concentrations (1 μM-25 μM) of unlabeled competitor for 30 min at 37° C. in 25 μL of buffer containing 0.1 mg/ml E.coli tRNA (Roche, Mannheim, Germany), 0.25 mg/ml BSA, 2 mM MgCl₂ in 1× PBS, pH 7.4. The aptamer-protein complexes were captured on a Protran nitrocellulose membrane (GE Healthcare) that was pre-incubated in 0.4 M KOH for 10 minutes, followed by washing with 1× PBS containing 2 mM MgCl₂, pH 7.4. After addition of the aptamer-protein solution, the filter was washed 4 times with lx PBS containing 2 mM MgCl₂ using vacuum filtration. Residual radioactivity due to cMet bound labeled aptamers was quantified using Fujifilm Fla-3000 Phosphorlmager and AIDA software. The curves were fitted with GraphPadPrism 3.02 plotting non-linear regression curve and the IC₅₀ values have been calculated assuming a competition for single binding site.
(§2) To test the influence of lipid tails on aptamer binding, a competitive filter-binding assay was carried out using the methodology above. Varying concentrations of unlabeled 5′-lipid functionalized aptamer 3 and its two-point mutant variant trCLN3.mut-L4 (see Example 2.3) competed with a constant amount of ³²P-radio-labeled native trCLN3 aptamer in binding to cMet.

Data set [2] has as its target T1, cMet (HGFR) ectodomain, cMet-Fc. Kind of data set: competition; no competition with 32P-trCLN3 within tested concentration range. Particulars: tags: Fc domain of human IgG1 fusion, R&D Systems; chain copies: 2. On the procedure: as §1, §2
Data set [3] has the same target. The data set is described as follows: filter; almost no binding in filter retention assay. Particulars: tags: Fc domain of human IgG1 fusion, R&D Systems; chain copies: 2.

This note sets out measurements from patent US20200123547, “NUCLEIC ACID-BASED ASSEMBLY AND USES THEREOF” (Rheinische Friedrich-Wilhelms-Universität Bonn, published 2020).

T1 sequence (P08581 25-932, one chain of several): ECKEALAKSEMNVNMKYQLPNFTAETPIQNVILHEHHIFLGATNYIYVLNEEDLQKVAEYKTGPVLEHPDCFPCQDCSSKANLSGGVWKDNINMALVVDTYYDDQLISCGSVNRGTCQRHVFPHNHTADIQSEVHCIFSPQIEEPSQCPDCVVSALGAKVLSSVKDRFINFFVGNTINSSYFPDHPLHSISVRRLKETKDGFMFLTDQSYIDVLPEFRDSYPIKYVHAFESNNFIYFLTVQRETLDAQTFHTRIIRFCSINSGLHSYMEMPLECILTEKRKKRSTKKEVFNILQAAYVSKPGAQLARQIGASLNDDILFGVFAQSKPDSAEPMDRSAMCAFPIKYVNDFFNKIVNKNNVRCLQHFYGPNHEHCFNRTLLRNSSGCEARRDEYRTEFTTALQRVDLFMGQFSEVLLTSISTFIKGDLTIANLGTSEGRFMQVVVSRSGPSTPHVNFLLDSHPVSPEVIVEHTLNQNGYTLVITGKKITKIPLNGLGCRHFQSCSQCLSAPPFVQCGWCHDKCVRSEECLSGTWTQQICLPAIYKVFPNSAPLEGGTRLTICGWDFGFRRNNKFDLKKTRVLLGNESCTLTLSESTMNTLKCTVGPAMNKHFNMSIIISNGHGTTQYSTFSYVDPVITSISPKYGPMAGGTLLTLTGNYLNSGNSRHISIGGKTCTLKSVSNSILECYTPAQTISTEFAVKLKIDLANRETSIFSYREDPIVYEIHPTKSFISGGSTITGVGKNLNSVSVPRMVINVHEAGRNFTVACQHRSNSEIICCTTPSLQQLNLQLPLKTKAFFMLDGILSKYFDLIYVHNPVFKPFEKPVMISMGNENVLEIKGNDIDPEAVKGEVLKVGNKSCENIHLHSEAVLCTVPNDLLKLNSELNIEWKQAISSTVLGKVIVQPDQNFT

B1: trCLN3-L4 (structured_DNA)
DNA: TGGATGGTAGCTCGGTCGGGGTGGGTGGGTTGGCAAGTCT
modifications: four 5-(1-dodecynyl)-2'-deoxyuridine (C12 lipid) residues at 5' end
On to B1, for which the IC50 (usually the point on the concentration scale where inhibition reaches its midpoint) in data set [1] is 43 nM.

B2: trCLN3.mut-L4 (ssDNA)
DNA: TGGATGATAGCTCGGTCGGGGTGGATGGGTTGGCAAGTCT
modifications: four 5-(1-dodecynyl)-2'-deoxyuridine (C12 lipid) residues at 5' end
On to B2, for which the binding result in data set [2] is “no binding”.

B3: trCLN3.mut (ssDNA)
DNA: TGGATGATAGCTCGGTCGGGGTGGATGGGTTGGCAAGTCT
As to B3, the binding result in data set [3] is given as “no binding”.
